Source: patent US20250262210A1 (TRUSTEES OF COLUMBIA UNIVERSITY IN THE CITY OF NEW YORK, published 2025)

Key:
RNF213 = RNF213 (human, UniProt Q63HN8 1-5207, limits assumed); assay: IP/MS, LZTR1 wild type-FLAG, U87
How it was run: (§1)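 Read-out: spectral counts from LC-MS/MS (Orbitrap Fusion) after MaxQuant identification. Variable modifications were Met oxidation, protein N-terminal acetylation and N/Q deamidation.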

USP4 = molecular target: T1, USP4 (human, UniProt Q13107 1-963, limits assumed); assay: IP/MS, LZTR1 wild type-FLAG, U87
T1 sequence (looked up): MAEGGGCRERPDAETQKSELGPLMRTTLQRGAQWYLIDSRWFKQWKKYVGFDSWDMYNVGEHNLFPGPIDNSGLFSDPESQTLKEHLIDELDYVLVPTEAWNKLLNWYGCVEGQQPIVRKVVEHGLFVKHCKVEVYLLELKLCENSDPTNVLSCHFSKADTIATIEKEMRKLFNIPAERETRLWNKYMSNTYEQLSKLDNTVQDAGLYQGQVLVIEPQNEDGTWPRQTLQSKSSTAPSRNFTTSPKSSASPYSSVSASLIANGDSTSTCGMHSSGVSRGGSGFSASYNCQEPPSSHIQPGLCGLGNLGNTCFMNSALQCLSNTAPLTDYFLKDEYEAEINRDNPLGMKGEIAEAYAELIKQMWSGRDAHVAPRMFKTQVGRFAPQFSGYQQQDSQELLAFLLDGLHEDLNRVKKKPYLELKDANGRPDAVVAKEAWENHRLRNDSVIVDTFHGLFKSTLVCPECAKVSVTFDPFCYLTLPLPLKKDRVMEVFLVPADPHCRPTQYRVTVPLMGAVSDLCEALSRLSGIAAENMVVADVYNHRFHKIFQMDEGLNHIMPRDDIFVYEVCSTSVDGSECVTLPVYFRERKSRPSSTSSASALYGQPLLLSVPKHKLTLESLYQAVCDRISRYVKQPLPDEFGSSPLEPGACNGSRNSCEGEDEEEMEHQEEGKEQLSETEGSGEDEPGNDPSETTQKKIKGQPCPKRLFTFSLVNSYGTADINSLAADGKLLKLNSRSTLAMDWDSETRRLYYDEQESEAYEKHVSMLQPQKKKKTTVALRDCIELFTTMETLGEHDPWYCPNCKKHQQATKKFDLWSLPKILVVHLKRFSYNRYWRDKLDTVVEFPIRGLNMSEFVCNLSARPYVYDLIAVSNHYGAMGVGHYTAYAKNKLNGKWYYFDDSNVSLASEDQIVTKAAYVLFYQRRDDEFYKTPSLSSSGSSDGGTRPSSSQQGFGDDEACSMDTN
How it was run: as §1

RNF213, sequence (Q63HN8 whole entry, the tested form may be a part): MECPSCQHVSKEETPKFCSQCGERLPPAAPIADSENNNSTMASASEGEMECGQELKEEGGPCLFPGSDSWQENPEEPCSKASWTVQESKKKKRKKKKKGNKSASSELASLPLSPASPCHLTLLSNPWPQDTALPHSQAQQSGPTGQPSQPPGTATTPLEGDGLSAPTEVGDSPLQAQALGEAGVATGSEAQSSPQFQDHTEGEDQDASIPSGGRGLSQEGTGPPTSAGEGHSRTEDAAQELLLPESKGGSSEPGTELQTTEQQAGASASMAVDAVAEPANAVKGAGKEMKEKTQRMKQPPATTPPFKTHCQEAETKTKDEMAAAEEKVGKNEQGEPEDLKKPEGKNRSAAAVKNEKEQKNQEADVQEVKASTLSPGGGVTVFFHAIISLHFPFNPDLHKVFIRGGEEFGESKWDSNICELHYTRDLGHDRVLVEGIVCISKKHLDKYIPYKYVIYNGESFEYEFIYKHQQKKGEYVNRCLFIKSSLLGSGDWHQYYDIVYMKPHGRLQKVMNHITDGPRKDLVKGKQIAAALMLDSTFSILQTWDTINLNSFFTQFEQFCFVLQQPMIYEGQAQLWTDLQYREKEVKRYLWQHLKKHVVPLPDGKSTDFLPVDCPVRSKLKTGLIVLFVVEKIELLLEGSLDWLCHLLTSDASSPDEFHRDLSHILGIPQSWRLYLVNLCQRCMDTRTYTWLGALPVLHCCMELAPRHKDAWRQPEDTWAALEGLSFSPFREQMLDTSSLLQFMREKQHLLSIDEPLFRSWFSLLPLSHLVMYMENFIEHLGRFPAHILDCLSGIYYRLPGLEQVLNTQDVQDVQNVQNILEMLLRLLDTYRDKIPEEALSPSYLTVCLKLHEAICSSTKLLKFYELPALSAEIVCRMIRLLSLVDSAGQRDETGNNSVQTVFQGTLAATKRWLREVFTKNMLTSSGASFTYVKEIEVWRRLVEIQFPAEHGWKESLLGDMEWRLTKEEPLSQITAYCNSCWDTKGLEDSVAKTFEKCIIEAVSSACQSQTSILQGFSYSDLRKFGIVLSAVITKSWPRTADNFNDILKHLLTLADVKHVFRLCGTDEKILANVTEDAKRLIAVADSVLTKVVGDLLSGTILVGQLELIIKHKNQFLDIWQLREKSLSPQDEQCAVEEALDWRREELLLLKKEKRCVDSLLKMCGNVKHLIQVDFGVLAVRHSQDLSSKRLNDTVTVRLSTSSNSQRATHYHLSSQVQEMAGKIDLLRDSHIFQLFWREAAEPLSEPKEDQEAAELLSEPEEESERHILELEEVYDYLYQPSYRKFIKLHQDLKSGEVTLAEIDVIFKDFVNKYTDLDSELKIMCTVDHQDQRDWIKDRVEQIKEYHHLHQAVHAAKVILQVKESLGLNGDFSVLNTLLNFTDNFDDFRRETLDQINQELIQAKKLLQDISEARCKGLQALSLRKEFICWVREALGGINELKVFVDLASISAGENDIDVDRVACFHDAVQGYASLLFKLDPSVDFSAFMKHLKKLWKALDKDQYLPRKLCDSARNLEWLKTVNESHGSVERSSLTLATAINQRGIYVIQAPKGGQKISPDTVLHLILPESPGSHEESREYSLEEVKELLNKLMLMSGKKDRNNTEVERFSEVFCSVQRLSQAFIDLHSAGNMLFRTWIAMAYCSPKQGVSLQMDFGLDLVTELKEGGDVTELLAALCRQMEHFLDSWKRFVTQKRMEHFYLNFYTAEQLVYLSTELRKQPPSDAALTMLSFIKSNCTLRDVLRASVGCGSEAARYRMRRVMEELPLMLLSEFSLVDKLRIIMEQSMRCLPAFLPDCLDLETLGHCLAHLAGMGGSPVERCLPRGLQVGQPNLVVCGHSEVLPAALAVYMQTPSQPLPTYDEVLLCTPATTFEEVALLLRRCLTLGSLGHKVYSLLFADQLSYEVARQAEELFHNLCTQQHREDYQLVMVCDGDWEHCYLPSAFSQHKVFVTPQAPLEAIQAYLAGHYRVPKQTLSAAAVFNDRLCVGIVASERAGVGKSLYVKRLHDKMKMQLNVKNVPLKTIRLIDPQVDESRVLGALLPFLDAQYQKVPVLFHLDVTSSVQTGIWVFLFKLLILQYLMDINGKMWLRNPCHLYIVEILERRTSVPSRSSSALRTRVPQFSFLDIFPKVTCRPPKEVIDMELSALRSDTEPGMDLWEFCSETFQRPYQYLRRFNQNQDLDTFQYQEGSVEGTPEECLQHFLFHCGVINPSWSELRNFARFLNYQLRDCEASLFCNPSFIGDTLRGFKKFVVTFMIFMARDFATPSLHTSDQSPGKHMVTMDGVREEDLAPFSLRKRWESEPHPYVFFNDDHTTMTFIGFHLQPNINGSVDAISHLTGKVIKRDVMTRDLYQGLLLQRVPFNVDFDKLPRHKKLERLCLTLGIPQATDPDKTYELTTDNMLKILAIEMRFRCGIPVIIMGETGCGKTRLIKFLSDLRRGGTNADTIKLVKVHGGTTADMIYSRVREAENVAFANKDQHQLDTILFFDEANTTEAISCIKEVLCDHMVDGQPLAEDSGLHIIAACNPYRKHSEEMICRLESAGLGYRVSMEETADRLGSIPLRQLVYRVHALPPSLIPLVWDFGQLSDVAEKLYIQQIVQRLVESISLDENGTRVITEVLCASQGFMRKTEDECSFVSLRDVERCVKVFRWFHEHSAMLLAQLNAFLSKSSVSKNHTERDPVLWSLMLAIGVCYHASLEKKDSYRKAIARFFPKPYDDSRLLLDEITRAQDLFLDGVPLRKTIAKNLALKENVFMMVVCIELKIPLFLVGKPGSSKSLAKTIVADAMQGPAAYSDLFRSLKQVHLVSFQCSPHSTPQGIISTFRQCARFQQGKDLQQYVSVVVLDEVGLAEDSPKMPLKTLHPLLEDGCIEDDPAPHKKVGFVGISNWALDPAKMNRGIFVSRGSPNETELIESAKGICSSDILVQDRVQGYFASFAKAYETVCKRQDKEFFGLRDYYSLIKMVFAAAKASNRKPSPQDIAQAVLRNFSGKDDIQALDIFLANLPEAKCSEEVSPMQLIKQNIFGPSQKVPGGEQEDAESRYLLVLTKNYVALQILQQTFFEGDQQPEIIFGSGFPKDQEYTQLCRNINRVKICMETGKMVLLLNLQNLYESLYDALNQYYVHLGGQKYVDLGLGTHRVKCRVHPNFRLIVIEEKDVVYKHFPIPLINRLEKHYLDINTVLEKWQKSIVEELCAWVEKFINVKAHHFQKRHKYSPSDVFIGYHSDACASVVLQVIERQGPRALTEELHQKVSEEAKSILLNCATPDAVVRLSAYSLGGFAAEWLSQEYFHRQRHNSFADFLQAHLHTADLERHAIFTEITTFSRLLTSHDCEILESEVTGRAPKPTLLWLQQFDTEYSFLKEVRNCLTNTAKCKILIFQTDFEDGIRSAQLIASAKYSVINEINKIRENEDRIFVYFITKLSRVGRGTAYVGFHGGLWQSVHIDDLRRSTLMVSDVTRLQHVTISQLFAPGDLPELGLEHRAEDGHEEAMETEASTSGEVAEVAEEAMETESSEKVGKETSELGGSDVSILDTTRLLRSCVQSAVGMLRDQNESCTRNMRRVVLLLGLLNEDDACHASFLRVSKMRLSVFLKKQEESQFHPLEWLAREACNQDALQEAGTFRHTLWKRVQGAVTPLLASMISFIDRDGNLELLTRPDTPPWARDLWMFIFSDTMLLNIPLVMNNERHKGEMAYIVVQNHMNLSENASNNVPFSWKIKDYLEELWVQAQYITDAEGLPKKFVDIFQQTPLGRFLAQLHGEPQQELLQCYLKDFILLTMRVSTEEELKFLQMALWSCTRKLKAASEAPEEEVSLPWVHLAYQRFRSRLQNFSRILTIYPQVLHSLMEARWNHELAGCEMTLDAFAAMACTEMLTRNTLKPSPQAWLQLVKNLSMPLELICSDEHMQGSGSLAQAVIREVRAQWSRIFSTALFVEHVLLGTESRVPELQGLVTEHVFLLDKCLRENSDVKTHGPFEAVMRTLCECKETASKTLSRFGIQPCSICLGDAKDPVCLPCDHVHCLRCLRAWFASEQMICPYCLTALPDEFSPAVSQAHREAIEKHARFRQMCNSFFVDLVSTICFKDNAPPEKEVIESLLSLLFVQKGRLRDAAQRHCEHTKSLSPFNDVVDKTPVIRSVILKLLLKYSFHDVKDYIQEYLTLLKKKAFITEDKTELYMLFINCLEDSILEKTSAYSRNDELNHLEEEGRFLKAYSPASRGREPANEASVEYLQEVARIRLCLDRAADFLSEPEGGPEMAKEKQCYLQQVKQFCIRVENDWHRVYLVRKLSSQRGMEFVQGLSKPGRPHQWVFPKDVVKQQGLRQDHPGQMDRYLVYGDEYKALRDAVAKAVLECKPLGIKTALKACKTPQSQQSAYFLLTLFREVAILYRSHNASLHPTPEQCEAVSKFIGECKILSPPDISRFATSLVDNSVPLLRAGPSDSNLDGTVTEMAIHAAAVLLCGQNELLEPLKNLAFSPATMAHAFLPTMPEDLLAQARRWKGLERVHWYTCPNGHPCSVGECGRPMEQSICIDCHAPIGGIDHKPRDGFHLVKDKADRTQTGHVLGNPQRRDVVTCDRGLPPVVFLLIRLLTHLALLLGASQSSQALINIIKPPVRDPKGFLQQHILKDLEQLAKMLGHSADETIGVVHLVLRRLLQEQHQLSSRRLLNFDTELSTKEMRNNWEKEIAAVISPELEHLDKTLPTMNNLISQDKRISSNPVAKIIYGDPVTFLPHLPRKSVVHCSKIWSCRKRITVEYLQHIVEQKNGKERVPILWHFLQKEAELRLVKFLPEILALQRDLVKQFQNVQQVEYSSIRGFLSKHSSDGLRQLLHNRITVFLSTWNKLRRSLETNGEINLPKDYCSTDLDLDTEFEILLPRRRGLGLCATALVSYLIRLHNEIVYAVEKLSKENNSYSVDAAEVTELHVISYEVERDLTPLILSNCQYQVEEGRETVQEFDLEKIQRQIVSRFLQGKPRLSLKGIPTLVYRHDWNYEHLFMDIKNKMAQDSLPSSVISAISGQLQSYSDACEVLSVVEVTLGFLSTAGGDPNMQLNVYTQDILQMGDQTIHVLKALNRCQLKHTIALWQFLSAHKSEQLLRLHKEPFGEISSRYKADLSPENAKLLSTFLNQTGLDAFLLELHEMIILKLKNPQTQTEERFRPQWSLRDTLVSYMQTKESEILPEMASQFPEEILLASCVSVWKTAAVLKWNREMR

B1: LZTR1-FLAG (other, human, UniProt Q8N653 1-840, looked up)
chain: MAGPGSTGGQIGAAALAGGARSKVAPSVDFDHSCSDSVEYLTLNFGPFETVHRWRRLPPCDEFVGARRSKHTVVAYKDAIYVFGGDNGKTMLNDLLRFDVKDCSWCRAFTTGTPPAPRYHHSAVVYGSSMFVFGGYTGDIYSNSNLKNKNDLFEYKFATGQWTEWKIEGRLPVARSAHGATVYSDKLWIFAGYDGNARLNDMWTIGLQDRELTCWEEVAQSGEIPPSCCNFPVAVCRDKMFVFSGQSGAKITNNLFQFEFKDKTWTRIPTEHLLRGSPPPPQRRYGHTMVAFDRHLYVFGGAADNTLPNELHCYDVDFQTWEVVQPSSDSEVGGAEVPERACASEEVPTLTYEERVGFKKSRDVFGLDFGTTSAKQPTQPASELPSGRLFHAAAVISDAMYIFGGTVDNNIRSGEMYRFQFSCYPKCTLHEDYGRLWESRQFCDVEFVLGEKEECVQGHVAIVTARSRWLRRKITQARERLAQKLEQEAAPVPREAPGVAAGGARPPLLHVAIREAEARPFEVLMQFLYTDKIKYPRKGHVEDVLLIMDVYKLALSFQLCRLEQLCRQYIEASVDLQNVLVVCESAARLQLSQLKEHCLNFVVKESHFNQVIMMKEFERLSSPLIVEIVRRKQQPPPRTPLDQPVDIGTSLIQDMKAYLEGAGAEFCDITLLLDGHPRPAHKAILAARSSYFEAMFRSFMPEDGQVNISIGEMVPSRQAFESMLRYIYYGEVNMPPEDSLYLFAAPYYYGFYNNRLQAYCKQNLEMNVTVQNVLQILEAADKTQALDMKRHCLHIIVHQFTKVSKLPTLRSLSQQLLLDIIDSLASHISDKQCAELGADI
notes: Expressed in HEK 293T, HeLa or U87 cells; used as cell lysate; also called LZTR1 wild type-FLAG; LZTR1 WT; not shown: FLAG tag at the C-terminus
RNF213
  binding result: binds
USP4
  binding result: binds
